One test has as its target T1, rhCD28-FC chimera (R&D) (human (printed as 'rh'), UniProt P10747 19-152).
T1 construct: Bought from R&D; Fc part of the bought chimera not given
Description: ELISA, rhCD28-FC chimera coated at 1 ug/ml, CEA-scTsAb diluted from 10 ug/ml, detected by anti-c-myc antibody. (In an ELISA, binding on a coated surface is turned into a signal by an enzyme label.)

For test [1], the target named is T2, purified CEA (carcinoembryonic antigen) (UniProt P06731 35-685, limits assumed).
T2 construct: Bought antigen; also called purified CEA (Fitzerald, German); purified CEA(R&D)
T2 sequence (looked up): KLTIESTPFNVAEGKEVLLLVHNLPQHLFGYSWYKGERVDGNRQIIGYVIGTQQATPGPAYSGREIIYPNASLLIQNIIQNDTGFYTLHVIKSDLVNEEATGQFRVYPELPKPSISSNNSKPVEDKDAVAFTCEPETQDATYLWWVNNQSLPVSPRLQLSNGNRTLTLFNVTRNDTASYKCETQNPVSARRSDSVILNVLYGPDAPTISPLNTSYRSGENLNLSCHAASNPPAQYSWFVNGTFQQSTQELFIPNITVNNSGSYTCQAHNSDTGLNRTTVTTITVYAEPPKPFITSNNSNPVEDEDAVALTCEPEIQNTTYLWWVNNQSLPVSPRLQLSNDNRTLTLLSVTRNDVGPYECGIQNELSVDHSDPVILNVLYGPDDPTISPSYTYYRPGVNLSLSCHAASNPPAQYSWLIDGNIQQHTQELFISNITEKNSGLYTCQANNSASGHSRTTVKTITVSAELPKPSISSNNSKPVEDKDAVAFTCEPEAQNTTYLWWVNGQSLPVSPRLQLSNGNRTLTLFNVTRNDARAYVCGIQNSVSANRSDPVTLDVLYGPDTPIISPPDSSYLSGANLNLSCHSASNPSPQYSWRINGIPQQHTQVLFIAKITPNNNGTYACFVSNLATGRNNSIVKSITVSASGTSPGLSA
In words: ELISA, CEA coated at 1 ug/ml, CEA-scTsAb diluted from 10 ug/ml, detected by anti-c-myc antibody.

T1 sequence (P10747 19-152, change not shown): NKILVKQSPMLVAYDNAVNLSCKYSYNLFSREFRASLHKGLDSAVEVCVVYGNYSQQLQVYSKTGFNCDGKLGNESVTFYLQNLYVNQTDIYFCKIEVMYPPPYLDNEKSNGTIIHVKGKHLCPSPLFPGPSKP

B1: recombinant anti-CEA/CD3/CD28 single-chain tri-specific antibody CEA-scTsAb (other)
chain: MGLEQVQLQQSGAELMKPGASVKISCKATGYTFSDYWIEWVKQRPGHGLEWIGEILPGSGRTDYNERFKGKATFTGDVSSNTAYMKLSSLTSEDSAVYYCATGTTPFGYWGQGTLVTVSATSTPSHNSHQVPSAGGPTANSGSRDIVLTQSPASLAVSLGQRATISCRASQSVSTSSYTYMHWYQQKPGQPPKLLIKYASNLESGVPARFSGSGSGTDFTLNIHPVEEEDTAYYYCQHSWEIPRTFGGGTKLEIKEFNSTYRVVSVLTVLHQDWLNGKEYKCKSTEVKLVESGPELVKPGASMKISCKASGYSFTGYTMNWVKQSHGKNLEWMGLINPYKGVSTYNQKFKDKATLTVDKSSSTAYMELLSLTSEDSAVYYCARSGYYGDSDWYFDVWGAGTSVTVSSTSGGGGSGGGGSGGGGSSRDIQMTQTTSSLSASLGDRVTISCRASQDIRNYLNWYQQKPDGTVKLLIYYTSRLHSGVPSKFSGSGSGTDYSLTISNLEQEDIATYFCQQGNTLPWTFAGGTKLELKRAVDFQNALLVRYTKKVPQVSTPTPVEVSHMQVQLQESGPGLVKPSQTLSLTCTVSGFSLSDYGVHWVRQPPGKGLECLGVIWGGGTNYNSALMSRRVTSSDDTSKNQFSLKLSSVDTAVYYCARSYYYSMDYWGQGTLVTVSSGTEQKLISEEDLNGAAHHHHHHEQ
notes: Single linear tri-specific antibody expressed solubly in the E. coli cytoplasm and purified by DEAE flow-through to about 70-75% purity; also called anti-CEA/CD3/CD28 scTsAb
As to B1, the binding result (with rhCD28-FC chimera (R&D); in test [1]) was “binds” throughout.
